In experiment [1] the target is T1, Mouse HARS (mouse, UniProt Q61035 1-509, limits assumed).
T1 construct: also called mouse HRS
T1 sequence: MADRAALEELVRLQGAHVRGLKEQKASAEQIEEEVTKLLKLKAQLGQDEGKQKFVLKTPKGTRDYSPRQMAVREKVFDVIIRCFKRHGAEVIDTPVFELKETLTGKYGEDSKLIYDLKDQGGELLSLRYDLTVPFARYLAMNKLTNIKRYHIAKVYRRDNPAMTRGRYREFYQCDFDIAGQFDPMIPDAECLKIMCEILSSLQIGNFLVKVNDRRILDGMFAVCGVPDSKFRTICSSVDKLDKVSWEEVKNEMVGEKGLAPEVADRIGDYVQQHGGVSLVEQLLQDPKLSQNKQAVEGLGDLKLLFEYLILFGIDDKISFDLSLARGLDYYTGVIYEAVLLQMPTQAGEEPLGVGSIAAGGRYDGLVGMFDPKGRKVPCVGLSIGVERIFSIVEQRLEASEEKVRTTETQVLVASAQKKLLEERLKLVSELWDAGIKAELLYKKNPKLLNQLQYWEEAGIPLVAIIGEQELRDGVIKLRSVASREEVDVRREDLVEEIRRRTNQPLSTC
As to the kind of experiment: SPR (ProteOn); HRS protein immobilized, antibody as analyte.

Experiment [2] concerns the target T2, Human HARS (human, UniProt P12081 1-509, limits assumed).
T2 construct: also called human HRS; human histidyl-tRNA synthetase
T2 sequence: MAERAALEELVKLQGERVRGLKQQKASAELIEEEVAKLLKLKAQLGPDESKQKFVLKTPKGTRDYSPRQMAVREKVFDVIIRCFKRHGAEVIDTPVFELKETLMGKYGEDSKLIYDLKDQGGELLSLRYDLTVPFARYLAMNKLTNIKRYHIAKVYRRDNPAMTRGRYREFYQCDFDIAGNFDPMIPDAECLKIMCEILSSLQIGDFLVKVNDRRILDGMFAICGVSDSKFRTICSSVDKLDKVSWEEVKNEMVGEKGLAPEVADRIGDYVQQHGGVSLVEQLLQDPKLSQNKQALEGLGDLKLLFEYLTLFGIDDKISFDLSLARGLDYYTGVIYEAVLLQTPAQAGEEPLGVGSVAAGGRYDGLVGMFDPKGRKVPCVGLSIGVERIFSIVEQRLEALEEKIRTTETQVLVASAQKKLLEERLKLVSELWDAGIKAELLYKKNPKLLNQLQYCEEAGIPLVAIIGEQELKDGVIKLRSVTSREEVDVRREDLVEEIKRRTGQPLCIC
The experiment is described as above.

What is called Kd is the free concentration of one partner at which half of the binding sites on the other are occupied at equilibrium, for simple one-to-one binding. The low end stands for a tighter complex, the high end for a looser complex.

B1: AB04-425 (antibody, V domains shown)
VH: QVQLVESGGGLVKPGGSLRLSCAASGFTFSDYYMTWIRQAPGKGLEWVSYISGSFRYTNYADKVKGRFTISRDNAKNSLYLQMNSLRDEDTAVYFCARYVYQVVAIGDLWGQGTLVTVSS
VL: DIQMTQSPSSVSASVGDRVTITCRASQGISSWLAWYQQKPGRAPKLLIFAASSLQSGVPSRFSGSGSGTHFTLTISSLQPEDFATYYCQQAESFPYTFGQGTKLEIK
notes: Human; IgG1m(zf) kappa
Take B1: the equilibrium dissociation constant (Kd) in experiment [1] came out at 0.127 nM; in experiment [2], 0.01 nM.

B2: AB13-259 (IgG1m(zf) kappa) (antibody, V domains shown)
VH: QVQLVESGGGLVKPGGSLRLSCAASGFTFSDYYMSWIRQAPGKGLEWVSYISDKSRYTKYTDSVRGRFTISRDNAKNSLYLQMNSLRAEDTAVYYCARYLYQVIAIADAWGQGTLVTVSS
VL: DIQMTQSPSSVSASVGDRVTITCRASQGISSWLAWFQQKPGKAPKLLIFVASNLESGVPSRFSGSGSGTDFTLTISSLQPEDFATYYCQQAESFPYTFGQGTKLEIK
notes: Human
In turn, B2 gave a Kd in experiment [2] of 0.015 nM.

B3: AB13-259 (IgG4-2 kappa) (antibody, V domains shown)
VH: QVQLVESGGGLVKPGGSLRLSCAASGFTFSDYYMSWIRQAPGKGLEWVSYISDKSRYTKYTDSVRGRFTISRDNAKNSLYLQMNSLRAEDTAVYYCARYLYQVIAIADAWGQGTLVTVSS
VL: DIQMTQSPSSVSASVGDRVTITCRASQGISSWLAWFQQKPGKAPKLLIFVASNLESGVPSRFSGSGSGTDFTLTISSLQPEDFATYYCQQAESFPYTFGQGTKLEIK
notes: Human
B3: in experiment [2], the affinity, expressed as Kd, was 0.029 nM.

B4: AB04-483 (antibody, V domains shown)
VH: QVQLVESGGGLVKPGGSLRLSCAASGFTFSDYYMTWIRQAPGKGLEWVSYISGSNAYTNYADSVKGRFTISRDNAKNSLYLQMNSLRDEDTAVYFCARYVYQVVAIGDYWGQGTLVTVSS
VL: DIQMTQSPSSVSASVGDRVTITCRASQGISSWLAWYQQKPGRAPKLLIFAASSLQSGVPSRFSGSGSGTHFTLTISSLQPEDFATYYCQQAKSFPYTFGQGTKLEIK
notes: Human; IgG1m(zf) kappa
For the molecule B4, the dissociation constant (Kd) in experiment [2] was 0.265 nM.

B5: AB04-365 (antibody, V domains shown)
VH: QVQLVESGGGLVKPGGSLRLSCAASGFTFSDYYMTWIRQAPGKGLEWVSYISGSFAYTNYADSVKGRFTISRDNAKNSLYLQMNSLRDEDTAVYFCARYVYQVVAIGDYWGQGTLVTVSS
VL: DIQMTQSPSSVSASVGDRVTITCRASQGISSWLAWYQQKPGRAPKLLIFAASSLQSGVPSRFSGSGSGTHFTLTISSLQPEDFATYYCQQAKSFPYTFGQGTKLEIK
notes: Human; IgG1m(zf) kappa
Take B5: the Kd in experiment [2] amounted to 0.185 nM.

B6: AB04-276 (antibody, V domains shown)
VH: QVQLVESGGGLVKPGGSLRLSCAASGFTFSDYYMTWIRQAPGKGLEWVSYISGSFAYTDYADSVKGRFTISRDNAKNSLYLQMNSLRDEDTAVYFCARYVYQVVAIGDYWGQGTLVTVSS
VL: DIQMTQSPSSVSASVGDRVTITCRASQGISSWLAWYQQKPGRAPKLLIFAASSLQSGVPSRFSGSGSGTHFTLTISSLQPEDFATYYCQQAKSFPYTFGQGTKLEIK
notes: Human; IgG1m(zf) kappa
In turn, B6 came in with a Kd in experiment [2] of 0.46 nM.

B7: AB13-227 (antibody, V domains shown)
VH: QVQLVESGGGLVKPGGSLRLSCAASGFTFSDYYMSWIRQAPGKGLEWVSYISDSSRYTKYTDSVRGRFTISRDNAKNSLYLQMNSLRAEDTAVYYCARYLYQVIAIAKSWGQGTLVTVSS
VL: DIQMTQSPSSVSASVGDRVTITCRASQGISSWLAWFQQKPGKAPKLLIFVASNLESGVPSRFSGSGSGTDFTLTISSLQPEDFATYYCQQAESFPYTFGQGTKLEIK
notes: Human; IgG1m(zf) kappa
Molecule B7 displayed a Kd in experiment [2] of under 0.05 nM.

B8: AB04-411 (antibody, V domains shown)
VH: QVQLVESGGGLVKPGGSLRLSCAASGFTFSDYYMTWIRQAPGKGLEWVSYISGSNAYTDYADSVKGRFTISRDNAKNSLYLQMNSLRDEDTAVYFCARYVYQVVAVGDLWGQGTLVTVSS
VL: DIQMTQSPSSVSASVGDRVTITCRASQGISSWLAWYQQKPGRAPKLLIFAASSLQSGVPSRFSGSGSGTHFTLTISSLQPEDFATYYCQQAKSFPYTFGQGTKLEIK
notes: Human; IgG1m(zf) kappa
In the case of B8, in experiment [2], binding was put at a Kd of 1.9 nM.

B9: AB04-380 (antibody, V domains shown)
VH: QVQLVESGGGLVKPGGSLRLSCAASGFTFSDYYMTWIRQAPGKGLEWVSYISGSFRYTNYAPSVKGRFTISRDNAKNSLYLQMNSLRDEDTAVYFCARYVYQVVAIGDLWGQGTLVTVSS
VL: DIQMTQSPSSVSASVGDRVTITCRASQGISSWLAWYQQKPGRAPKLLIFAASSLQSGVPSRFSGSGSGTHFTLTISSLQPEDFATYYCQQAESFPYTFGQGTKLEIK
notes: Human; IgG1m(zf) kappa
In experiment [2], B9 showed a Kd of 0.026 nM.

B10: AB04-151 (antibody, V domains shown)
VH: QVQLVESGGGLVKPGGSLRLSCAASGFTFSDYYMTWIRQAPGKGLEWVSYISGSFRYTNYADSVKGRFTISRDNAKNSLYLQMNSLRDEDTAVYFCARYVYQVVAIGDYWGQGTLVTVSS
VL: DIQMTQSPSSVSASVGDRVTITCRASQGISSWLAWYQQKPGRAPKLLIFAASSLQSGVPSRFSGSGSGTHFTLTISSLQPEDFATYYCQQAKSFPYTFGQGTKLEIK
notes: Human; IgG1m(zf) kappa
As for B10, binding in experiment [2] was put at a Kd of 0.025 nM.

B11: AB13-147 (antibody, V domains shown)
VH: QVQLVESGGGLVKPGGSLRLSCAASGFTFSDYYMSWIRQAPGKGLEWVSYISDSSRYTKYTDSVRGRFTISRDNAKNSLYLQMNSLRAEDTAVYYCARYLYQVIAIAKSWGQGTLVTVSS
VL: DIQMTQSPSSVSASVGDRVTITCRASQGISSWLAWFQQKPGKAPKLLIFVASNLESGVPSRFSGSGSGTDFTLTISSLQPEDFATYYCQQANSFPYTFGQGTKLEIK
notes: Human; IgG1m(zf) kappa
The molecule B11 gave a Kd in experiment [2] of 0.024 nM.

B12: AB04-174 (antibody, V domains shown)
VH: QVQLVESGGGLVKPGGSLRLSCAASGFTFSDYYMTWIRQAPGKGLEWVSYISGSNAYTDYADSVKGRFTISRDNAKNSLYLQMNSLRDEDTAVYFCARYVYQTVAIGDLWGQGTLVTVSS
VL: DIQMTQSPSSVSASVGDRVTITCRASQGISSWLAWYQQKPGRAPKLLIFAASSLQSGVPSRFSGSGSGTHFTLTISSLQPEDFATYYCQQAKSFPYTFGQGTKLEIK
notes: Human; IgG1m(zf) kappa
In experiment [2], B12 came in with a Kd of 170 nM.

B13: AB13-166 (antibody, V domains shown)
VH: QVQLVESGGGLVKPGGSLRLSCAASGFTFSDYYMSWIRQAPGKGLEWVSYISDKSRYTKYTPSVRGRFTISRDNAKNSLYLQMNSLRAEDTAVYYCARYLYQVIAIADAWGQGTLVTVSS
VL: DIQMTQSPSSVSASVGDRVTITCRASQGISSWLAWFQQKPGKAPKLLIFVASNLESGVPSRFSGSGSGTDFTLTISSLQPEDFATYYCQQAESFPYTFGQGTKLEIK
notes: Human; IgG1m(zf) kappa
B13 gave a Kd in experiment [2] of under 0.001 nM.

B14: AB04-482 (antibody, V domains shown)
VH: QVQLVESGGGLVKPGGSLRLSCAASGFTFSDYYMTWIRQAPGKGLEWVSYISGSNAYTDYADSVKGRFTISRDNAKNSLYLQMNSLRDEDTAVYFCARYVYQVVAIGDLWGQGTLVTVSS
VL: DIQMTQSPSSVSASVGDRVTITCRASQGISSWLAWYQQKPGRAPKLLIFAASSLQSGVPSRFSGSGSGTHFTLTISSLQPEDFATYYCQQAKSFPYTFGQGTKLEIK
notes: Human; IgG1m(zf) kappa
In turn, B14 displayed a Kd in experiment [2] of 0.26 nM.

B15: KL31-241 (antibody, V domains shown)
VH: QVQLVQSGAEVKKPGASVKVSCKASGYTFTDYCIGWIRQAPGQGLEWMGDICPGDAYTNDNEKFKDRATMTADTSTSTAYMELSSLRSEDTAVYYCARGEEQLGLRNAMDYWGQGTSVTVSS
VL: DIVMTQSPDSLAVSLGERATINCQSQSVSTSTYNYMHWYQQKPGQPPKLLIKYASNLESGVPDRFSGSGSGTDFTLTISSLQAEDVATYYCQHSWEIPWTFGGGTKLEIK
notes: Humanized; IgG1m(zf) kappa
With B15, the figures for the Kd in experiment [1] and in experiment [2] were 5.1 nM and 1.4 nM, respectively.

B16: KL31-240 (antibody, IgG4, V domains shown)
VH: QVQLVQSGAEVKKPGASVKVSCKASGYTFTDYCIGWIRQAPGQGLEWMGDICPGDTYTNDNEKFKDRATMTADTSTSTAYMELSSLRSEDTAVYYCARGEEQLGLRNAMDYWGQGTLVTVSS
VL: EIVLTQSPATLSLSPGERATLSCQSQSVSTSTYNYMHWYQQKPGQAPRLLIKYASNLESGIPDRFSGSGSGTDFTLTISRLEPEDFATYYCGHSYEIPWTFGGGTKVEIK
notes: Humanized; IgG4 kappa
In the case of B16, the Kd in experiment [1] was found to be 0.942 nM; in experiment [2], 0.104 nM.

B17: KL31-513 (antibody, IgG4, V domains shown)
VH: QVQLVQSGAEVKKPGASVKVSCKASGYTFTDYCIGWIRQAPGQGLEWMGDICPGDTYTNDNEKFKDRATMTADTSTSTAYMELSSLRSEDTAVYYCARGEEQLGLRNAMDYWGQGTLVTVSS
VL: EIVLTQSPATLSLSPGERATLSCQSQSVSTSTYNYMHWYQQKPGQAPRLLIKYASNLESGIPDRFSGSGSGTDFTLTISRLEPEDFATYYCGHSYEIPWTFGGGTKVEIK
notes: Humanized; IgG4-2 kappa
Take B17: the dissociation constant Kd came to 1.25 nM in experiment [1] and 0.116 nM in experiment [2].

B18: KL31-532 (antibody, V domains shown)
VH: QVQLVQSGAEVKKPGASVKVSCKASGYTFTDYCIGWIRQAPGQGLEWMGDICPGDTYTNDNEKFKDRATMTADTSTSTAYMELSSLRSEDTAVYYCARGEEQLGLRNAMDYWGQGTLVTVSS
VL: DIVMTQSPDSLAVSLGERATINCQSQSVSTSTYNYMHWYQQKPGQPPKLLIKYASNLESGVPDRFSGSGSGTDFTLTISSLQAEDVATYYCGHSYEIPWTFGGGTKVEIK
notes: Humanized; IgG1m(zf) kappa
B18: the equilibrium dissociation constant (Kd) stood at 0.37 nM in experiment [1] and 0.064 nM in experiment [2].

For the origin of these results see patent publication US20180282402A1 (ATYR PHARMA, published 2018).
